Measured values: patent US12281340B2, “Method of producing N-acyl-amino group-containing compound” (AJINOMOTO CO., INC., priority 2018, dated 2025)

How the values were obtained:
[1] = Synthesis of N-caprinoylamino acid using purified acylamino acid synthetase, UPLC-MS detection; format: biochemical; parameters: key: +: Detected; −: Not detected; settings: +ATP
Method in brief: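 Purified enzyme (50 μg) with 5 mM amino acid, 5 mM sodium caprate, 10 mM ATP, 10 mM MgCl2, 1 mM DTT in Tris-HCl pH 8.0, 24 h at 25° C; product detected by UPLC-MS (ESI-negative) as the N-caprinoyl amino acid mass signal.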

[2] = Analysis of ATP dependency of acylamino acid synthetase; format: biochemical; settings: Gly and sodium caprate
Protocol: 0.25 mL of a reaction solution containing 50 mM Tris-HCl, 5 mM amino acid, 5 mM sodium caprate, 10 mM or 0 mM ATP, 10 mM MgCl2, 1 mM DTT, 50 μg of the purified enzyme, pH 8.0 was incubated at 25° C. for 24 hours. As the amino acid, L-Asp and Gly were used in AtGH3-6 and CfHP, respectively. After completion of the reaction, 0.8 mL of the reaction stop solution (1% (v/v) phosphoric acid, 75% (v/v) methanol) was added to 0.2 mL of the reaction solution, and the mixture was filtrated through the filter followed by being subjected to the UPLC-MS analysis to quantify a produced N-caprinoylamino acid by detection at UV 210 nm. The condition for the UPLC-MS analysis is as described in Example 2. As a result of the analysis, 3.8 mM and […] of the N-caprinoylamino acids were detected in AtGH3-6 and CfHP, respectively in the presence of ATP. However, in the absence of ATP, no signal of the molecular weight corresponding to the N-caprinoylamino acid was detected when any of AtGH3-6 and CfHP was used.

[3] = Synthesis of N-capryloylamino acid using washed microbial cell suspension or microbial cell suspension expressing acylamino acid synthetase; format: cell-based, E coli BL21(DE3); settings: UV 210 nm
Protocol: BL21(DE3)/pET-28a-AtGH3-6, BL21(DE3)/pET-28a-OsGH3-8, BL21(DE3)/pET-28a-AtGH3-5, and BL21(DE3)/pET-28a were inoculated to 100 mL of LB medium containing 25 mg/L of kanamycin in a Sakaguchi flask, respectively and cultured with shaking at 37° C. When OD610 reached 0.6, 1 mM IPTG was added, and culturing with shaking was continued at 15° C. for 24 hours.
BL21(DE3)/pET-28a-CfHP was inoculated to 100 mL of LB medium containing 25 mg/L of kanamycin in a Sakaguchi flask, and cultured with shaking at 37° C. When OD610 reached 0.2, 1 mM IPTG was added, and culturing with shaking was continued at 15° C. for 24 hours.
After completion of the culture, microbial cells were collected from 5 mL of the resulting culture medium by centrifugation and washed with 20 mM Tris-HCl (pH 7.6) followed by being suspended in 1 mL of 20 mM Tris-HCl (pH 7.6) to use as a washed microbial cell suspension.
After completion of the culture, 15 mL of the resulting culture medium was concentrated to 3 mL by centrifugation to use as a microbial cell suspension.
0.3 mL of a reaction solution containing 33.3 mM Tris-HCl, 3.3 mM amino acid, 3.3 mM sodium caprylate, 6.7 mM or 0 mM ATP, 6.7 mM MgCl2, 0.7 mM DTT, 30 μg of the microbial cell suspension (cell free extract solution, washed microbial suspension, microbial suspension), pH 8.0 was incubated at 25° C. for 24 hours. As the amino acid, L-Asp was used in AtGH3-6, OsGH3-8, AtGH3-5, and Gly or L-Ala was used in CfHP. After completion of the reaction, 0.8 mL of the reaction stop solution (1% (v/v) phosphoric acid, 75% (v/v) methanol) was added, and the mixture was filtrated through the filter followed by being subjected to the UPLC-MS analysis to detect a signal of a molecular weight corresponding to the N-capryloylamino acid. The condition for the UPLC-MS analysis is as described in Example 2. As a result of the UPLC-MS analysis, the signal of the molecular weight corresponding to the appropriate N-capryloylamino acid was confirmed in the reaction solution using the microbial cell suspension and the like shown in Table 8 below.
As a result of quantifying the produced N-acylamino acid by detection at UV 210 nm, when Gly was used as the substrate in CfHP, 2.8 mM, 2.2 mM and 2.6 mM N-capryloylamino acids were detected in the washed microbial cell suspension, the microbial cell suspension (in the presence of ATP) and the microbial cell suspension (in the absence of ATP), respectively. When L-Ala was used as the substrate in CfHP, 2.4 mM, 0.9 mM and 1.0 mM N-capryloylamino acids were detected in the washed microbial cell suspension, the microbial cell suspension (in the presence of ATP) and the microbial cell suspension (in the absence of ATP), respectively.

B1: CfHP: hypothetical protein from Cystobacter fuscus (GH3 protein), His-tagged (protein, listed as Cystobacter fuscus)
chain: MQAAGRRDKQRFIEQTRHVARVNVDTLRAILQHNRDTDFGRRHGFASLRTVEDFQRALPVSTYEPFRPYMERIARGEQNVLTADRVEYLGITSGTTGQRKLLPVSRPHLENMRRTMMIGRAVVTEKVPAARRPSRGMILMNAVLRERSEGGLLTGALTAISTHSMGRAASFAFTSPPEAFRLRKHADALYLHLLFGLRERELGTLMAPFASGLLDMVHLLERRGADLVDDIARGVLRPELDLEPEQRRLLQSRLLPDPERAREVSQALEQGPHGLLRRLWPRLAYVSSITGASFSLYTRQLTPYLEGVPLSAASYVSTEGILGVPLELEQAVYCLMVGMAFFEFIPERELDAESPTTLLPEQLVEGEAYEVVLTTQAGLYRYRLGDVVRIVGRYHEAPLMEFLYRRGALLNLMGEKTSEHAARLALEQALATEGLLPADYSVVEETETLPGRYALFVELQEGARPQGAPEQLSRALEEALCRTNPFYEVIRRSERLGAAQLHRVEPGTFQALRDVLVQRGASPTQVKVPRVVRDAELQGLLRQRRVTG
modifications: His-tag
notes: hypothetical protein from Cystobacter fuscus (GH3 protein), His-tagged
2.4 mM: N-capryloylamino acid detected ([3]; L-Ala as substrate, washed microbial cell suspension)
+: signal of molecular weight corresponding to N-caprinoyl amino acid ([1]; substrates GABA and sodium caprate) | signal of molecular weight corresponding to N-caprinoyl amino acid ([1]; substrates Gly and sodium caprate) | signal of molecular weight corresponding to N-caprinoyl amino acid ([1]; substrates L-Ala and sodium caprate) | signal of molecular weight corresponding to N-caprinoyl amino acid ([1]; substrates L-Arg and sodium caprate) | signal of molecular weight corresponding to N-caprinoyl amino acid ([1]; substrates L-Asn and sodium caprate) | signal of molecular weight corresponding to N-caprinoyl amino acid ([1]; substrates L-Asp and sodium caprate) | signal of molecular weight corresponding to N-caprinoyl amino acid ([1]; substrates L-Cys and sodium caprate) | signal of molecular weight corresponding to N-caprinoyl amino acid ([1]; substrates L-Gln and sodium caprate) | signal of molecular weight corresponding to N-caprinoyl amino acid ([1]; substrates L-Glu and sodium caprate) | signal of molecular weight corresponding to N-caprinoyl amino acid ([1]; substrates L-His and sodium caprate) | signal of molecular weight corresponding to N-caprinoyl amino acid ([1]; substrates L-Ile and sodium caprate) | signal of molecular weight corresponding to N-caprinoyl amino acid ([1]; substrates L-Leu and sodium caprate) | signal of molecular weight corresponding to N-caprinoyl amino acid ([1]; substrates L-Lys and sodium caprate) | signal of molecular weight corresponding to N-caprinoyl amino acid ([1]; substrates L-Met and sodium caprate) | signal of molecular weight corresponding to N-caprinoyl amino acid ([1]; substrates L-Phe and sodium caprate) | signal of molecular weight corresponding to N-caprinoyl amino acid ([1]; substrates L-Pro and sodium caprate) | signal of molecular weight corresponding to N-caprinoyl amino acid ([1]; substrates L-Ser and sodium caprate) | signal of molecular weight corresponding to N-caprinoyl amino acid ([1]; substrates L-Thr and sodium caprate) | signal of molecular weight corresponding to N-caprinoyl amino acid ([1]; substrates L-Trp and sodium caprate) | signal of molecular weight corresponding to N-caprinoyl amino acid ([1]; substrates L-Tyr and sodium caprate) | signal of molecular weight corresponding to N-caprinoyl amino acid ([1]; substrates L-Val and sodium caprate) | signal of molecular weight corresponding to N-caprinoyl amino acid ([1]; substrates β-Ala and sodium caprate)
0.9 mM: N-capryloylamino acid detected ([3]; L-Ala as substrate, microbial cell suspension (in the presence of ATP))
2.6 mM: N-capryloylamino acid detected ([3]; Gly as substrate, microbial cell suspension (in the absence of ATP))
5.2 mM: N-caprinoylamino acid detected ([2]; in the presence of ATP (10 mM), UV 210 nm)
2.8 mM: N-capryloylamino acid detected ([3]; Gly as substrate, washed microbial cell suspension)
1.0 mM: N-capryloylamino acid detected ([3]; L-Ala as substrate, microbial cell suspension (in the absence of ATP))
no signal: signal of molecular weight corresponding to N-caprinoyl amino acid ([2]; in the absence of ATP)
2.2 mM: N-capryloylamino acid detected ([3]; Gly as substrate, microbial cell suspension (in the presence of ATP))
